These results are taken from article PMC2234240 (The Journal of Cell Biology, 2008).

For this assay, the target named is T1, GST-Rsa1p (yeast (S. cerevisiae), UniProt Q08932 1-381).
T1 sequence: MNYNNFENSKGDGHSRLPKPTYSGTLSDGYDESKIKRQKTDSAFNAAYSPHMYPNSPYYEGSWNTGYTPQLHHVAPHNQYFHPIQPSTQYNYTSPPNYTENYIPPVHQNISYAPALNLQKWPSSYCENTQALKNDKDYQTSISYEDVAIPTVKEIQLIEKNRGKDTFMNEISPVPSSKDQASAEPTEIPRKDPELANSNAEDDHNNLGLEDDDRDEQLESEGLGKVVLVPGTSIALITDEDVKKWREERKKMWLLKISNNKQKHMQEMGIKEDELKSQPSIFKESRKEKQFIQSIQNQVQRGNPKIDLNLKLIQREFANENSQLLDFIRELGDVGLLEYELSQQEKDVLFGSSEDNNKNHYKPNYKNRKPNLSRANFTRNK
Briefly: pull-down.

B1: recombinant Snu13p (natural protein)
chain: MSAPNPKAFPLADAALTQQILDVVQQAANLRQLKKGANEATKTLNRGISEFIIMAADCEPIEILLHLPLLCEDKNVPYVFVPSRVALGRACGVSRPVIAASITTNDASAIKTQIYAVKDKIETLLI
B1: the binding result is given as “binds”.
